In data set [1] the target is GST-Shc PTB domain fusion protein (human) (UniProt P29353). The data set is described as follows: SPR (Biacore) competition, Table 1. (In SPR one partner is held on a chip, and binding of the other changes the refractive index at the surface.)
For data set [2] the target is unchanged. The data set can be described thus: not stated in Table 2; the same number as the IC50 of Table 1.
For a further data set, the system named is cells. The data set can be described thus: Peptide localization in cells (anti-phospho-Tyr immunofluorescence). The data set is classed as cell-based. As for the experimental part:
To examine peptide localization, cells were treated with P-1 or P-2 peptide for 4 hours, stained with anti-phospho-Tyr and rhodamine-conjugated antibody, and observed with a confocal microscope. A Z-scan was carried out to make images in each 0.15 μm section from the top of the cells to the bottom. […] Cells treated with P-1 peptide were not stained by anti-phospho-Tyr antibody, confirming the specifity of the immunofluoroscence staining. In a time course analysis, cells were serum-starved for 24 hours, and incubated with peptide (5 μM) for various time periods. Cells were stained by anti-phosphoro-Tyr antibody and analyzed under an immunofluoroscence microscope. Cells treated with P-2 peptide retained phospho-peptide for up to 24 hrs. In a dose response experiment, cells were starved in serum-free medium for 24 hours, cultured with peptide at various concentrations, and stained with anti-phospho-tyrosine antibody (4G10) to detect the peptide containing phospho-tyrosine residue (red) and by Hoechst 33258 for nuclei (blue). P-2 peptide was detected at 0.5 μM and 1 μM in cells .

Data set [3] concerns the target GST-Shc PTB domain fusion protein (human) (UniProt P29353). The data set can be described thus: competition with EGF-R for GST-ShcB beads, dose response, anti-phospho-Tyr blot.
The target is the same in data set [4]. The data set is described as follows: SPR (Biacore) competition, Table 1. This is another data set of the same source.
The target is the same in data set [5]. The data set can be described thus: not stated in Table 2; presumably as the IC50 of Table 1.

Square brackets hold non-standard residues; d marks the D form. Ends that are not written are not given here. Peptide text beside a SMILES is read from it. pY = N[C@@H](Cc1ccc(OP(=O)(O)O)cc1)C(=O)O

Sequence of GST-Shc PTB domain fusion protein (human) (P29353 111-319 limits assumed): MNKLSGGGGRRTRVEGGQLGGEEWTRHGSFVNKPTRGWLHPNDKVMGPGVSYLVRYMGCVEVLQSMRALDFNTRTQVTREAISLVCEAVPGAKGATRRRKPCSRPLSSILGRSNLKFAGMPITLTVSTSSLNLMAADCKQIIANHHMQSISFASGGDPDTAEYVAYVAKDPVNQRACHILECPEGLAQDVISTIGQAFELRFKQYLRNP

In data set [1], “Wt NGF receptor phosphopeptide His-Ile-Ile-Glu-Asn-Pro-Gln-P.Tyr-Phe-Ser-Asp” gave a fold increase of the affinity against the peptide with Ala at -2 of 10 fold. In data set [2], this molecule returned a value printed beside the sequence without a heading of 175 nM. As for `CC[C@H](C)[C@H](NC(=O)[C@H](CCCCN)NC(=O)[C@@H](NC(=O)[C@H](CCC(N)=O)NC(=O)[C@@H](N)CCCNC(=N)N)[C@@H](C)CC)C(=O)N[C@@H](Cc1c[nH]c2ccccc12)C(=O)N[C@@H](Cc1ccccc1)C(=O)N[C@@H](CCC(N)=O)C(=O)N[C@@H](CC(N)=O)C(=O)N[C@@H](CCCNC(=N)N)C(=O)N[C@@H](CCCNC(=N)N)C(=O)N[C@@H](CCSC)C(=O)N[C@@H](CCCCN)C(=O)N[C@@H](Cc1c[nH]c2ccccc12)C(=O)N[C@@H](CCCCN)C(=O)N[C@@H](CCCCN)C(=O)N[C@@H](Cc1c[nH]cn1)C(=O)N[C@H](C(=O)N[C@H](C(=O)N[C@@H](CCC(=O)O)C(=O)N[C@@H](CC(N)=O)C(=O)N1CCC[C@H]1C(=O)N[C@@H](CCC(N)=O)C(=O)N[C@@H](Cc1ccc(OP(=O)(O)O)cc1)C(=O)N[C@@H](Cc1ccccc1)C(=O)N[C@@H](CO)C(=O)N[C@@H](CC(=O)O)C(=O)O)[C@@H](C)CC)[C@@H](C)CC` [P-2, RQIKIWFQNRRMKWKK-HIIENPQpYFSD] (H-RQIKIWFQNRRMKWKKHIIENPQ[pY]FSD-OH), the “peptide localization in cells” value in the data set on cells (cells treated 4 hours, anti-phospho-Tyr staining, confocal microscope) was “localized in the cytoplasm of cells, and not in the nucleus”. The “detection of peptide in cells by anti-phospho-tyrosine staining” value in the data set with cells (dose response, 0.5 μM and 1 μM (concentrations up to 1 μM)) is reported as “detected”. Further, in the data set with cells (time course, peptide 5 μM, serum-starved cells), the “retention of phospho-peptide in cells” value is on record as “up to 24 hrs”.

B1: C-1, Cyclo-(IENPQpYFSPG) (peptide)
peptide: cyclo(IENPQ[pY]FSPG)
SMILES: CC[C@H](C)[C@@H]1NC(=O)CNC(=O)[C@@H]2CCCN2C(=O)[C@H](CO)NC(=O)[C@H](Cc2ccccc2)NC(=O)[C@H](Cc2ccc(OP(=O)(O)O)cc2)NC(=O)[C@H](CCC(N)=O)NC(=O)[C@@H]2CCCN2C(=O)[C@H](CC(N)=O)NC(=O)[C@H](CCC(=O)O)NC1=O
On to B1, for which the percent inhibition at 100 µM in data set [3] was determined as 50%. HAAENPQ[pY]FSD [Ala-6, Ala-5 NGF receptor peptide H-A-A-E-N-P-Q-p.Y-F-S-D] yielded a fold lower affinity against a phosphopeptide with an Ile at either position -6 or -5 in data set [4] of 3 fold. With IENPQ[pY]FSD [Trk wild type truncated phosphopeptide IENPQpYFSD], the value printed beside the sequence without a heading in data set [5] was found to be 4 µM.

Source of the values: patent US6028053A, “Peptide inhibitors of a phosphotyrosine-binding domain containing protein” (Mount Sinai Hospital Corporation, priority 1998, dated 2000).
